Results reported in patent US20240382559A1, “PHARMACEUTICAL COMPOSITION COMPRISING KAI1 POLYPEPTIDE FOR INHIBITION OF HEPATIC FIBROSIS AND USE THEREOF” (PUSAN NATIONAL UNIVERSITY INDUSTRY-UNIVERSITY COOPERATION …, priority 2021, published 2024).

Key:
[1] = test system: mouse liver cell line (AML12); test: qPCR of fibrosis-related genes in TGF-β1-treated liver cell line, rhKAI1 / pepKAI1 WT / pepKAI1 Mut; format: cell-based; settings: 200 or 500 ng/mL for 2 hours, then TGF-β1 2 ng/ml 24 hours
Description: The effect of wild type KAI1 peptide (pepKAI1 WT) or mutant KAI1 peptide (pepKAI1 Mut) on fibrosis induced by treatment with TGF-β1 was confirmed in mouse liver cell line (AML12).
Specifically, the AML 12 cells were treated with recombinant human KAI1 protein (rhKAI1), wild type KAI1 peptide (pepKAI1 WT), and mutant KAI1 peptide (pepKAI1 Mut) at a concentration of 200 ng/mL or 500 ng/mL, respectively, and reacted for 2 hours. Thereafter, the cells were treated with TGF-β1 at a concentration of 2 ng/ml and cultured for an additional 24 hours, and then the cells were collected. RNA from the collected cells was extracted with Trizol, cDNA was synthesized, and then changes in expression of fibrosis-related genes (α-SMA, Col1a1, TIMP1, Vimentin, TGF-β, and fibronectin) were confirmed by qPCR analysis.

[2] = test system: mouse liver cell line (AML12); test: Immunoblotting of ZO-1 (EMT) in TGF-β1-treated liver cell line; format: cell-based; settings: 500 ng/ml for 2 hours, then TGF-β1 24 or 48 hours
Description: The epithelial-mesenchymal transition (EMT) process has been proposed as one of the mechanisms of fibrosis. Therefore, the effect of KAI1 protein on the EMT process induced by TGF-1 in mouse liver cell line (AML12) was confirmed.
Specifically, the AML12 cells were treated with of KAI1 protein at a concentration of 500 ng/ml and reacted for 2 hours. Thereafter, the cells were treated with TGF-β1 and cultured for an additional 24 hours or 48 hours, and then the cells were collected. The collected cells were lysed in RIPA buffer containing protease inhibitors to extract proteins, and immunoblotting was performed by loading an equal amount of proteins. The protein expression level of ZO-1 was confirmed using an antibody of ZO-1 (anti-ZO antibody, 13663, Abcam), an epithelial biomarker during the EMT process. At this time, anti-tubulin antibody (T5168, Sigma-Aldrich) was used as an internal control, and HRP-conjugated anti-rabbit antibody (ADI-SAB-300-J, Enzo Life Sciences) was used as a secondary antibody.

liver cell line (AML12) = test: qPCR of fibrosis-related genes in TGF-β1-treated liver cell line, KAI1 protein; format: cell-based, mouse; settings: 200 or 500 ng/mL for 2 hours, then TGF-β1 2 ng/mL 24 hours
Description: In order to confirm the activity of KAI1protein to inhibit hepatic fibrosis at the cellular level, the liver cell line (AML12), which had hepatic fibrosis induced by treatment with TGF-β1, was treated with KAI1 protein to confirm changes in the expression of fibrosis-related genes.
Specifically, the AML 12 cells were cultured in DMEM/F12 medium containing 10% (v/v) fetal bovine serum (FBS), 1% (w/v) penicillin-streptomycin, 10 μg/mL insulin, 5.5 μg/mL transferrin, 5 ng/mL selenium, and 40 ng/ml dexamethasone. The AML12 cells were treated with KAI1 protein at a concentration of 200 ng/ml or 500 ng/mL, respectively, and reacted for 2 hours. Thereafter, the cells were treated with TGF-β1, a fibrosis-inducing cytokine, at a concentration of 2 ng/mL and cultured for an additional 24 hours, and then the cells were collected. RNA from the collected cells was extracted with Trizol, cDNA was synthesized, and then changes in expression of fibrosis-related genes (α-SMA, Col1a1, TIMP1, and MMP9) were confirmed by qPCR analysis.

[3] = test system: human hepatic stellate cell line (LX2); test: qPCR of fibrosis-related genes in hepatic stellate cell line; format: cell-based; settings: rhKAI1 200 or 500 ng/mL, 24 or 48 hours
Description: (§1) It is known that fibrosis occurs due to excessive proliferation and activation of hepatic stellate cells. Therefore, changes in fibrosis-related gene expression by treatment with KAI1 protein were confirmed in human hepatic stellate cell line (LX2).
(§2) Specifically, the LX2 cell line was treated with recombinant human KAI1 protein (rhKAI1) at a concentration of 200 ng/mL or 500 ng/mL, respectively. Thereafter, the cells were cultured for 24 hours or 48 hours and collected to confirm cell proliferation and fibrosis-related gene expression in the cells. The cell proliferation was measured using MTS assay. RNA from the collected cells was extracted with Trizol, cDNA was synthesized, and then changes in expression of fibrosis-related genes (α-SMA, Col1a1, Vimentin, TGF-β, and GFAP) were confirmed by qPCR analysis.

[4] = test system: human hepatic stellate cell line (LX2); test: Immunoblotting of fibrosis-related proteins in hepatic stellate cell line; format: cell-based; settings: 200 or 500 ng/mL, 24 or 48 hours, vs. untreated group
Description: as §2
The expression of fibrosis-related proteins was confirmed in human hepatic stellate cell line (LX2) treated with KAI1 protein in the same manner as in Example 4.1. At this time, anti-Vimentin antibody (sc-5565, Santa Cruz Biotech.), anti-Col1α1 antibody (NBP1-30054, Novus Biological), anti-α-SMA antibody (A5228, Sigma-Aldrich), anti-GFAP antibody (Z0334, Dako), and anti-GAPDH antibody (MCA4739, AbD Serptec) were used as primary antibodies, and HRP-conjugated anti-rabbit antibody (ADI-SAB-300-J, Enzo Life Sciences) and anti-mouse antibody (ADI-SAB-100-J) were used as secondary antibodies.

[5] = test system: acute hepatic fibrosis model mice; test: H&E staining of liver tissue in CCl4 acute hepatic fibrosis animal model; format: in vivo; settings: C57BL/6 male mice, CCl4 i.p. twice a week; 4 μg KAI1 protein i.p. per mouse on day 8, liver extracted day 11
Description: (§3) Specifically, 7-week-old C57BL/6 male mice was prepared, and CCl4 was diluted in corn oil at a concentration of 1 mL/kg. In order to induce acute liver injury, the mice were injected intraperitoneally with the diluted CCl4 twice a week. As a control group, the mice were intraperitoneally injected with the same amount of the corn oil.
(§4) As a KAI1 protein, a polypeptide (Human CD82/KAI-1 Protein (His Tag), Sino Biological Inc.) comprising a KAI1 fragment comprising a polypeptide (extracellular domain, SEQ ID NO: 4) consisting of the 111st to 228th amino acid sequence from the N terminus in a polypeptide consisting of the amino acid sequence of SEQ ID NO: 1 was used. On the 8th day after the start of the experiment, 4 μg of KAI1 protein was injected intraperitoneally per mouse, and on the 11th day, the mice were sacrificed and liver tissue was extracted.
The liver tissue extracted in Example 2.1. was fixed in 10% (v/v) formalin solution. Thereafter, the liver tissue was embedded in paraffin and sectioned to a thickness of 4 μm to prepare tissue sections. After deparaffinization and superhydration, H&E (hematoxylin & eosin) staining was performed and observed under an optical microscope.

[6] = test system: human hepatic stellate cell line (LX2); test: Immunoblotting of senescence-related proteins in hepatic stellate cell line; format: cell-based; settings: 200 or 500 ng/mL, 24 or 48 hours, vs. untreated group
Description: as §2
The expression of senescence-related proteins was confirmed in human hepatic stellate cell line (LX2) treated with KAI1 protein in the same manner as in Example 4.1. At this time, anti-SIRT1 antibody (ab32441, Abcam), anti-p16 antibody (10883-1-ap, Protein tech.), and anti-GAPDH antibody (MCA4739, AbD Serptec) were used as primary antibodies, and HRP-conjugated anti-rabbit antibody (ADI-SAB-300-J, Enzo Life Sciences) and anti-mouse antibody (ADI-SAB-100-J) were used as secondary antibodies.

[7] = test system: human hepatic stellate cell line (LX2); test: Cell proliferation by MTS assay in hepatic stellate cell line; format: cell-based; settings: rhKAI1 200 or 500 ng/mL, 24 or 48 hours
Description: as §1, §2

[8] = test system: human hepatic stellate cell line (LX2); test: qPCR of senescence-related genes in hepatic stellate cell line; format: cell-based; settings: 200 or 500 ng/mL, 24 or 48 hours, vs. control group
Description: as §2
It is known that hepatic stellate cells can inhibit hepatic fibrosis by inducing senescence in the liver. Therefore, the expression of senescence-related genes (HGMA1, p16, p21 and p53, SIRT1) was confirmed in human hepatic stellate cell line (LX2) treated with KAI1 protein in the same manner as in Example 4.1.

[9] = test system: acute hepatic fibrosis model mice; test: qPCR of fibrosis-related genes in liver tissue of CCl4 acute hepatic fibrosis animal model; format: in vivo, mouse; settings: 4 μg KAI1 protein i.p. day 8, liver day 11, vs. CCl4
Description: as §3, §4
RNA was obtained from the liver tissue extracted in Example 2.1. The RNA from the liver tissue was obtained using Favorgen® Trizol according to the manufacturer's instructions. The RNA was reverse transcribed into cDNA using a cDNA synthesis kit (Bioneer corp.). Thereafter, real-time PCR (qPCR) was performed to confirm changes in the expression levels of fibrosis-related genes Col1a1 (collagen type 1), fibronectin, and TGFβ1 (transforming growth factor-β1).

Molecule: pepKAI1 WT: 20 amino acid functional KAI1 peptide with Y*C and EED motifs, NRPEVTYPCSCEVKGEEDNS (SEQ ID NO: 2) (Wild type KAI1 polypeptide)
- expression of fibrosis-related genes (α-SMA, Col1a1, TIMP1, Vimentin, TGF-β, fibronectin) increased by TGF-β1 (qPCR) [1]: reduced
- fibrosis-related gene expression compared to the group treated with rhKAI1 protein (qPCR) ([1]; comparison with rhKAI1): further reduced

Molecule: pepKAI1 Mut: mutant peptide with both Y*C and EED substituted with alanine, NRPEVTAPASCEVKGAAANS (SEQ ID NO: 3) (Mutant KAI1 polypeptide)
- expression of fibrosis-related genes (α-SMA, Col1a1, TIMP1, Vimentin, TGF-β, fibronectin) increased by TGF-β1 (qPCR) [1]: not reduced

B1: KAI1 protein: Human CD82/KAI-1 Protein (His Tag), Sino Biological; comprises extracellular domain, amino acids 111 to 228 of SEQ ID NO: 1 (SEQ ID NO: 4) (protein)
chain: GKLKQEMGGIVTELIRDYNSSREDSLQDAWDYVQAQVKCCGWVSFYNWTDNAELMNRPEVTYPCSCEVKGEEDNSLSVRKGFCEAPGNRTQSGNHPEDWPVYQEGCMEKVQAWLQENL
modifications: His tag; Extracellular domain of recombinant human KAI1 protein
- expression of ZO-1 protein reduced by TGF-β1 (immunoblotting) [2]: recovered
- expression of fibrosis-related genes (α-SMA, Col1a1, TIMP1, MMP9) increased by TGF-β1 (qPCR) (liver cell line (AML12)): reduced
- gene expression of Col1a1 (qPCR) [3]: significantly reduced
- gene expression of GFAP, marker gene for resting stellate cells (qPCR) [3]: tendency to increase
- gene expression of TGF-β (qPCR) [3]: significantly reduced
- gene expression of Vimentin (qPCR) [3]: significantly reduced
- gene expression of α-SMA (qPCR) [3]: significantly reduced
- protein expression of Col1α1 (immunoblotting) [4]: reduced
- protein expression of GFAP (immunoblotting) [4]: increased
- protein expression of Vimentin (immunoblotting) [4]: reduced
- protein expression of α-SMA (immunoblotting) [4]: reduced
- degree of cell damage and inflammatory cell infiltration (H&E staining of liver tissue) [5]: reduced
- expression of SIRT1, a senescence inhibition marker protein (immunoblotting) [6]: reduced
- expression of p16, a senescence marker protein (immunoblotting) [6]: increased
- cell proliferation (MTS assay) [7]: significantly reduced
- expression of SIRT1, a senescence inhibition marker (qPCR) [8]: reduced
- expression of senescence marker gene HGMA1 (qPCR) [8]: increased
- expression of senescence marker gene p16 (qPCR) [8]: increased
- expression of senescence marker gene p21 (qPCR) [8]: increased
- expression of senescence marker gene p53 (qPCR) [8]: increased
- gene expression of Col1a1 in liver tissue (qPCR) [9]: reduced
- gene expression of TGF-β1 in liver tissue (qPCR) [9]: reduced
- gene expression of fibronectin in liver tissue (qPCR) [9]: reduced
